Measured values: the RNAGym collection of RNA variant scans (doi:10.7554/elife.80360)

B1: HDV Ribozyme (parent)
chain: GGCCGGCAUGGUCCCAGCCUCCUCGCUGGCGCCGGCUGGGCAACAUUCCGAGGGGACCGUCCCCUCGGUAAUGGCGAAUGGGACCCA

Variants of: B1
Test: self-cleavage, relative activity (ratio to wild type); higher = more cleavage; co-transcriptional

Row | Variant | self-cleavage
1 | GGCCGGCAUGGUACCAGCCUCCUCGCUGGCGCCGGCUGGGCAGCAUUCCGAGGGGACCGUCCCCUCGGUAAUGGCGAAUGGGACCCA [C13A A43G] | 0.0831
2 | GGCCGGCAUGGGCCCAGCCUCCUCGCCGGCGCCGGCUGGGCAACAUUCCGAGGGGACCGUCCCCUCGGUAAUGGCGAAUGGGACCCA [U12G U27C] | 0.776
3 | GGCCGGCAUGGGCCCAGCCUCCUCGCGGGCGCCGGCUGGGCAACAUUCCGAGGGGACCGUCCCCUCGGUAAUGGCGAAUGGGACCCA [U12G U27G] | 0.639
4 | GGCCGGCAUGGGCCCAGCCUCCUCGCUCGCGCCGGCUGGGCAACAUUCCGAGGGGACCGUCCCCUCGGUAAUGGCGAAUGGGACCCA [U12G G28C] | 0
5 | GGCCGGCAUGGUACCAGCCUCCUCUCUGGCGCCGGCUGGGCAACAUUCCGAGGGGACCGUCCCCUCGGUAAUGGCGAAUGGGACCCA [C13A G25U] | 0.0791
6 | GGCCGGCAUGGUACCAGCCUCCUCGCUGGCGACGGCUGGGCAACAUUCCGAGGGGACCGUCCCCUCGGUAAUGGCGAAUGGGACCCA [C13A C32A] | 0.0326
7 | GGCCGGCAUGGUACCAGCCUCCUCGCUGGCGUCGGCUGGGCAACAUUCCGAGGGGACCGUCCCCUCGGUAAUGGCGAAUGGGACCCA [C13A C32U] | 0.375
8 | GGCCGGCAUGGGCCCAGCCUCCUCGCUGGCGCCGGCUGGGCAACACUCCGAGGGGACCGUCCCCUCGGUAAUGGCGAAUGGGACCCA [U12G U46C] | 1.02
9 | GGCCGGCAUGGUACCAGCCUCCUCGCUGGCUCCGGCUGGGCAACAUUCCGAGGGGACCGUCCCCUCGGUAAUGGCGAAUGGGACCCA [C13A G31U] | 0.0604
10 | GGCCGGCAUGGGCCCAGCCUCCUCGCUGGCACCGGCUGGGCAACAUUCCGAGGGGACCGUCCCCUCGGUAAUGGCGAAUGGGACCCA [U12G G31A] | 0.0504
11 | GGCCGGCAUGGGCCCAGCCUCCUCGCUGGCGCCGGCUGUGCAACAUUCCGAGGGGACCGUCCCCUCGGUAAUGGCGAAUGGGACCCA [U12G G39U] | 0.447
12 | GGCCGGCAUGGUACCAGCCUCCUCGCUGGCGCCGGCUGGGCAACAUUCCGAGGGGACCGUCCCCUCGGUAAUGGUGAAUGGGACCCA [C13A C75U] | 0.163
13 | GGCCGGCAUGGUACCACCCUCCUCGCUGGCGCCGGCUGGGCAACAUUCCGAGGGGACCGUCCCCUCGGUAAUGGCGAAUGGGACCCA [C13A G17C] | 0
14 | GGCCGGCAUGGUACCAACCUCCUCGCUGGCGCCGGCUGGGCAACAUUCCGAGGGGACCGUCCCCUCGGUAAUGGCGAAUGGGACCCA [C13A G17A] | 0.0639
15 | GGCCGGCAUGGUACCAGCCUCCUCGCUGGCGCCGGCUGGGCAACAUUCCGAGGGGACCGUCCCCUCGGUAAUGGCGAUUGGGACCCA [C13A A78U] | 0.0449
16 | GGCCGGCAUGGGCCCAGCCUCCUCGCUGGCGCCGGCUGGGCAACAUUCCGAGGGGACCGUCCCCUCGGUAAGGGCGAAUGGGACCCA [U12G U72G] | 0.128

Row | Variant | self-cleavage
17 | GGCCGGCAUGGGCCCAGCCUCCUCGCUGGCGCCGGCUGGGCAACAUUCCGAGGGGACCGUCCCCUCGGUAACGGCGAAUGGGACCCA [U12G U72C] | 0
18 | GGCCGGCAUGGUACCAGCCUCCUCGCUGGCGCCGGCUGGGCAACAUUCCGAGGGGACCGUCCCCUCGGUAAUGGCGAAUGGGACCCG [C13A A87G] | 0.187
19 | GGCCGGCAUGGGCCCAGCCUCCUCGCUGGCGCCGGCUGGGCAACAUUCCGAGGGAACCGUCCCCUCGGUAAUGGCGAAUGGGACCCA [U12G G55A] | 0.703
20 | GGCCGGCAUGGUACCAGCCUCCUCGCUGGCGCCGGCUGGGCAACAUUCCGAGGGGACUGUCCCCUCGGUAAUGGCGAAUGGGACCCA [C13A C58U] | 0.415
21 | GGCCGGCAUGGGCCCAGCCUCCUCGCUGGCGCCGGCUGGGCAACAUUCCGAGGGGACCGUCCCCUCGGUAAUAGCGAAUGGGACCCA [U12G G73A] | 0.323
22 | GGCCGGCAUGGUACCAGCCUCCUCGCUGGCGCCGCCUGGGCAACAUUCCGAGGGGACCGUCCCCUCGGUAAUGGCGAAUGGGACCCA [C13A G35C] | 0.0339
23 | GGCCGGCAUGGUACCAGCCUCCUCGCUGGCGCCGGCUGGGCAACAUUCCGAGGGGACCGUCCCAUCGGUAAUGGCGAAUGGGACCCA [C13A C64A] | 0.264
24 | GGCCGGCAUGGGCCCAGCCUCCUCGCUGGCGCCGGCUGGGCAACAUUCCGAGGGGACCGUCCCCUCGGUAAUGUCGAAUGGGACCCA [U12G G74U] | 0.453
25 | GGCCGGCAUGGGCCCAGCCUCCUCGCUGGCGCCGGCUGGGCAACAUUCCGAGGGGACCGUCCCCUCGGUAAUGACGAAUGGGACCCA [U12G G74A] | 0.18
26 | GGCCGGCAUGGUACCAGCCUCCUCGCUGGCGCCGGCUGGGCAACAUUCCGAGGGGGCCGUCCCCUCGGUAAUGGCGAAUGGGACCCA [C13A A56G] | 0.101
27 | GGCCGGCAUGGUACCAGCCUCCUCGCUGGCGCCGGCUGGGCAACAUUCCGAGGGGACCGUCCCCUCGGUAAUGGCGUAUGGGACCCA [C13A A77U] | 0.0739
28 | GGCCGGCAUGGGCCCAGCCUCCUCGCUGGCGCCGGCUGGGCAACAUUCCGAGGGGACCGUCCCCUCGCUAAUGGCGAAUGGGACCCA [U12G G68C] | 0.914
29 | GGCCGGCAUGGGCCCAGCCUCCUCGCUGGCGCCGGCUGGGCAACAUUCCGAGGGGACCGUCCCCUCGAUAAUGGCGAAUGGGACCCA [U12G G68A] | 0.529
30 | GGCCGGCAUGGUACCAGCCUCCUCGCUGGCGCCGGCUGGGCAACAUUCCGAGGGGACCGUCCCCUCGGUAAUGGCGAAUGGGAGCCA [C13A C84G] | 0.237
31 | GGCCGGCAUGGGCCCAGCCUCCUCGCUGGCGCCGGCUGGGCAACAUUCCGAGCGGACCGUCCCCUCGGUAAUGGCGAAUGGGACCCA [U12G G53C] | 0.831
32 | GGCCGGCAUGGGCCCAGCCUCCUCGCUGGCGCCGGCUGGGCAACAUUCCGAGGGGACCGUCCCCUCGGCAAUGGCGAAUGGGACCCA [U12G U69C] | 1.35
